Biological target: EGFR-moFc S442R (human)
Experiment: ELISA

binding result: no binding
B1: Necitumumab (antibody, V domains shown)
VH: QVQLQESGPGLVKPSQTLSLTCTVSGGSISSGDYYWSWIRQPPGKGLEWIGYIYYSGSTDYNPSLKSRVTMSVDTSKNQFSLKVNSVTAADTAVYYCARVSIFGVGTFDYWGQGTLVTVSS
VL: EIVMTQSPATLSLSPGERATLSCRASQSVSSYLAWYQQKPGQAPRLLIYDASNRATGIPARFSGSGSGTDFTLTISSLEPEDFAVYYCHQYGSTPLTFGGGTKAEIKR
